Residue numbers refer to the chain shown, from its start.
B1: LaG94-2 (VHH)
VHH: DVQLVESGGALVQAGGSLRLSCEFSGGTFNLYGIGWFRQAPEQDHEFVAGVSRYGSTYESVSVKGRFTSSRDNAKNSAYLEMNTLKPEDTGVYTCAATVREQVPTNFGSYIYRGQGTQVTVS
B2: LaG94-15 (VHH)
VHH: QVQLVESGGGAVQSGGSLSLSCAASGGIRSISAMTWFRQAPGREREFVAAVTRTLGTTYYTDSVKGRFTISRDSVKGTLYLRMNNMRPEDAAVYYCAARTRGFSTKVALETTDGMDYWGKGTLVTVS
B3: LaG94-3 (VHH)
VHH: QVQLVESGGGLVQAGGSLRLSCTASGGTVSSSGMGWFRQSSGNDRDFVAFITPTGPTTWYEESVNSRFTVSRDNAKNTIYLQMKSLRPEDTAIYYCAAGNIGRDSRTYPYWGQGTQVTVS
B4: LaG94-4 (VHH)
VHH: DVQLVESGGGLVQAGGSLRLSCAASGDTSSIHFWEWYRQAPGKQRELVATANNGDFTHLQDSVKGRFTISKDNAKSTVYLQMNDLKPEDTAVYLCYARSYSNSNFWGQGTQVTVS
B5: LaG94-10 (VHH)
VHH: QVQLVESGGGLVQAGGSLRLSCAASGLTLRVYDVTWFRQAPGKEREFVGTVNRNGVVTDYADSVKGRFTISRDNPKNTIYLQMNSLKPEDTAVYYCAAKTRPKLSTLWDEYIYRGQGTQVTVS
B6: LaG94-6 (VHH)
VHH: QVQLVESGGGAVQAGGSLRLSCAASGLTFSLYTMGWFRQAPEKEPEFVAYISKSGDTTTYADSVKGRFTIGRDNAKSTVYLQMNSLKSEDTAVYYCAASIKREITPNSIYRGQGTQVTVS
B7: LaG94-18 (VHH)
VHH: QVQLVESGGGLVQAGGSLRLSCVASGRTFSTSAMAWWRQAPGKEREFVAAISWNVGTTYYPDSVKGRFTISRDKAQNAVYLQMNSLKPEDTAVYYCAARVTGYFGDQVRRADDYRYWGQGTQVTVS
B8: LaG94-12 (VHH)
VHH: QVQLVESGGRLVQAGGSLRLSCAVSGGTFSLYSLGWFRQAPGKEREFVAAFSREDGTTSFADSVKGRFTMFRDGTKNTVYLQMNSLKQEDTAVYSCAATVRAQPSYSWSSYVYRGLGTQVTVS
B9: LaG94-9 (VHH)
VHH: QVQLVESGGGLVQPGGSLRLSCAASGGTFDTHTMGWFRQAPGKQREFVSAIRLHGVGTYYADSVKGRFTISRENAKNTVHLQMNNLKPEDTAVYYCAADRNWSRATEKEEYDYWGQGTQVTVS
B10: LaG94-5 (VHH)
VHH: QVQLAESGGGLVQAGGSLRLSCAASGRTFAMGWFRRAPGKEREFVASMSRSGLDTHYADSVKGRFTISRDNALNTVYLQTDSLKPEDTGDYFCAVGLRYWSLSGDYIRREKYDVWGQGTQVTVS
B11: LaG94-8 (VHH)
VHH: QVQLVESGGGLVQAGGSLRLSCAASGRTFMNYAMGWFRQAPGKGREFVASISWTGETSTYADFVKGRFTISRDNAKNTVYLQMDSLKPEDTAVYRCAAKRATDFDDTVREAAEADYWGQGTQVTVS
B12: LaG94-1 (VHH)
VHH: QVQLVESGGGLVQTGDSLRLSCRASGLTLSVYSTGWFRQAPGKEHENVAWISRSGDETYYEDSVKGRFTISRDNAKNTVYLQMNDLKPEDMARYYCAASNRGRTTAWNLYIYRGQGTQVTVS
B13: GST-8 (VHH)
VHH: QVQLVESGGDLVQAGGSLRLSCAASGSISAAYDMGWFRQVPGKQRELVASLGSGGFSAYADSVKGRFTVSRDNAKNTVYLQMNSLKPEDTGVYYCAARTPFDIWTTGRWGEYDYWGQGTQVTVS
notes: anti-GST nanobody; source: ArcticExpress (DE3) cells, purified from periplasm
B14: GST-6 (VHH)
VHH: QVQLVESGGGLVQPGESLRLSCAASGFTFSSHRMNWLRQAPGKGLEWVSTTSTGGGSAATYYVNSVKGRFTVSRDDAKNMLYLQMNSLKPEDTARYYCAIPESPGRPFGSTWSEYRYWGQGTQVTVS
notes: as for B13
B15: GST-7 (VHH)
VHH: QVTLVESGGGLVQAGGSLGLSCTASGHTFNPYAMAWFRQAPGKEREFVAAIGWRVGTTYYTDSVKGRFTISADNAKNTAYLQMNSLKPEDTAVYYCAAGFGRSPSNYDYWGQGTQVTVS
notes: as for B13
B16: GST-3 (VHH)
VHH: QVQLVESGGGLVQPGGSLRLSCADSGRIFSDYTMAWFRQPPGKEREFVASINRSGLGTYYADSVKGRFTVTRDNAKNMVYLQMNSLTVEDTAVYYCGARWGGSYIDPREGMYDFRGQGTQVTVS
notes: as for B13
B17: GST-1 (VHH)
VHH: QVQLVESGGGLVQAGGSLRLSCVCVGRAFGVYAMGWFRQSPGKEREFVAAITWNGGSIDYADSVKGRFAISRDNPPNTVYLQMNSLKPEDTAVYYCAKYRNNYYNEAPNSWGQGTQVTVS
notes: as for B13
B18: GST-2 (VHH)
VHH: B17 VHH with C24V, V31A, D59T, Q82E, R100T, N109K
notes: as for B13
B19: GST-4 (VHH)
VHH: B17 VHH
notes: as for B13
B20: GST-5 (VHH)
VHH: QVQLVESGGGLVQAGGSLRLSCVVTGRAFGAYAMGWFRQSPGKEREFVAAITWNGGTTNYADSVKGRFAISRDNPPNTVYLQMNSLKPEDTAVYYCAKYPNNFWHNEAPDSWGRGTQVTVS
notes: as for B13
B21: LaTdT-10 (VHH)
VHH: DVQLVESGGRLVQDGGSLRLSCEVSGGTFDTFAMGWFRQAPGKEREFVSAITWSGGNTYYGDSVKGRFTISRNNVKRTVYLQMISLKPEDTGVYYCAADPYGSSWSPLQKEGQYDYWGQGTQVTVS
B22: LaTdT-44 (VHH)
VHH: B21 VHH with D1Q
B23: LaTdT-8 (VHH)
VHH: QVQLVESGGGLVQAGDSLRLSCADAGLPYAFNHYGMAWFRQAPGKEREFVAGTSGGMTYYGDSVPDRFSFSRDNDKKTVHLHINSLKPEDTAVYYCAARLGGRYEDASDYDVWGQGTQVTVS
B24: LaTdT-1 (VHH)
VHH: DVQLVESGGGLVPAGGSLRLSCAASTSDLFSRYTMGWFRQAPGKEREFVSAITGMSSMTKYADSVKGRFTVSRDNRKATMYLQMDSLKPEDTAVYYCAAHTTTAAATPQSMGLMLKYDHWGQGTEVTVS
B25: LaTdT-9 (VHH)
VHH: QVQLVESGGGLVQPGDSLMLSCVISGHTFTNFRMGWFRQAPGKEREFVAGITWLFGRTDYADSVQGRFTISRDKGKDTMYLQMDSLKPEDTGVYTCAVQSGVLAYPMREGFYDIWGQGTHVTVS
B26: LaTdT-39 (VHH)
VHH: QVQLVESGGGLVQAGESLQLSCAASGGTLRDAIVGWFRQARGKEREFLASITWSGLSTNYSDSVKGRFVISRANPQNTAYLQMNSLKPEDTAIYYCAAKIGAFGLADEFRTVPQYDSWGQGTQVTVS
B27: LaTdT-2 (VHH)
VHH: DVQLVESGGGLVQAGDSLRLSCAFSGSAFDTYAMGWFRQAPGKEREFVSAITWSGGNTYYADSAKGRFTISRDDAKNTVYLQMNSLKPEDAATYYCAANRYGSSWSPLTKMGQYEHWGQGTQVTVS
B28: LaTdT-45 (VHH)
VHH: B27 VHH with D1Q
B29: LaTdT-38 (VHH)
VHH: QVQLVESGGGLVQAGGSLRLSCAASGRSFSGNNMGWFRQVSGTEREFVAAISWSGLITEYSGAVKGRFTISRDNAKNTLYLQMNSLKPEDTAVYSCAADGRDVQLPGRSEYDYNYWGQGTQVTVS

The binders below were run against GFP [GFP: P42212] (assay: SPR; GFP immobilised by EDC/NHS coupling (ProteOn XPR36, GLC chip, 5 ug/ml in 10 mM sodium acetate pH 5.0; or Biacore 8K, CM5 chip, 5 ug/ml, pH 5.5); nanobody as analyte; 20 mM Na-Hepes pH 7.4, 150 mM NaCl, 0.05% Tween 20; Langmuir binding model). Conditions: not given.

Row | Kd [nM] | Binder
1 | 27 | B1
2 | < 0.00014 | B2
3 | 0.13 | B3
4 | 3.7 | B4
5 | 0.009 | B5
6 | 0.083 | B6
7 | 0.92 | B7
8 | 0.3 | B8
9 | 0.021 | B9
10 | < 0.00089 | B10
11 | 0.21 | B11
12 | 0.016 | B12

Each binder was assayed against T1, GST (Schistosoma japonicum (assumed, …, UniProt P08515 = GST)) (assay: SPR; Biacore 8K; antigen immobilised on CM5 chip by amine coupling at 1 ug/ml (tdTomato) or 5 ug/ml (GST, IgGs) in 10 mM sodium acetate pH 5.5; nanobody injected in single-cycle kinetics at 0.1-10 nM; 20 mM Na-Hepes pH 7.4, 150 mM NaCl, 0.05% Tween 20; Langmuir 1:1 model, RIgG-1 and GIgG-4 fit to a two-step binding model). Conditions: both partners purified.
T1 construct: GST (glutathione S-transferase), the expression fusion protein tag; the methods describe only the production of GST-TEV protease; the 'GST' immobilised for SPR may be that fusion
T1 sequence (P08515 whole entry, looked up, the tested form may be a part): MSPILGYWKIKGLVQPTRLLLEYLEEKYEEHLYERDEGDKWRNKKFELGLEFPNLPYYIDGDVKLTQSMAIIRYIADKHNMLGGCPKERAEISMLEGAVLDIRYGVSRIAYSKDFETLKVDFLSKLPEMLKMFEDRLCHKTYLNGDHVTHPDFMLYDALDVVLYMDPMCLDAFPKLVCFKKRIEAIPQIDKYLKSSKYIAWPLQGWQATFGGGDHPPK

Row | Kd [nM] | Binder
13 | 0.13 | B13
14 | 0.15 | B14
15 | 0.17 | B15
16 | 0.35 | B16
17 | 0.085 | B17
18 | 0.064 | B18
19 | 0.26 | B19
20 | 0.13 | B20

These binders were tested against tdTomato in the same assay as above. Conditions: not given.

Row | Kd [nM] | Binder
21 | 0.052 | B21
22 | 0.044 | B22
23 | 0.037 | B23
24 | < 0.018 | B24
25 | 0.084 | B25
26 | 0.0059 | B26
27 | 0.0035 | B27
28 | 0.028 | B28
29 | 0.057 | B29

— paper PMC11401214, “A new generation of nanobody research tools using improved mass spectrometry-based discovery methods” (The Journal of Biological Chemistry, 2024)
